Results from the nanobody polyreactivity screen of Harvey et al. (2022).

Assay: yeast display, Sf9 membrane polyspecificity reagent, FACS + sequencing; frameworks hold sequencing errors
In short: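 A nanobody's polyreactivity label depends on the gate it was sorted from. Yeast display cells were stained with 10% biotinylated, detergent-solubilized Sf9 membrane reagent for 1 hour at 4 °C, enriched on streptavidin microbeads and sorted by FACS. The low and high (top ~1%) gates were set on anti-HA fluorescence for expression and streptavidin fluorescence for reagent binding.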

Sequence	polyreactivity (PSR sort gate)
QVQLVESGGGLVQAGGSLRLSCAASGSTFHPYAMGWYRQAPGKERELVAAITWRVGSTYYADSVKGRFTISRDNAKNTVYLLINCLKPEDTAVYYCAVSYLSTLGRSRYDYWGQGTQVSVSS	low polyreactivity
QVQLVESGGGLVQAGGSLRLSCAASGIIFTYYAMGWYRQAPGKERELVARISSSGGRTYYADSVKGRFTISRDNAKNTVYLQMNSLKPEDTAVYYCNAVTTKSFHRYDYWGQGTQVTVSS	high polyreactivity
QVQLVESGGGLVQAGGSLRLSCAASGFIFWYYAMGWYRQAPGKERELVAAISARDGSTYYADSVKGRFTISRDNAKNTVYLQMNSLKPEDTAVYYCNAVQRYPKFRMDYWGQGTQVTVSS	low polyreactivity
QVQLVESGGGLVQAGGSLRLSCAASGRTFPFYAMGWYRQAPGKERELVAVITWRGSNTYADSVKGRFTISRDNAKNTVYLQMNSLKPEDTAVYYCSATGGRYIDGYYYWGQGTQVTVSS	high polyreactivity
QVQLVESGGGLVQAGGSLRLSCAASGFIFRTYAMGWYRQAPGKERELVATITGDGSTNYADSVKGRFTISRDHAKNTVYLQMNSLKPEDTAVYYGSRDDRLAGDYWGQGSQVTVSS	low polyreactivity
QVQLVESGGCLVQAGGSLRLSCAASGLIFGRNVMGWYRQAPGKERELVAAISWSGGRTYYADSVKGRFSISRDNAKNTVYLQMNSLKPEDTAVYYCNARYSRVWYGCDYWGQGTQVTVSS	high polyreactivity
QVQLVESGGGLVQAGGSLRLSCAASGRTLKVYAMGWYRQAPGKERELVAAINNGGSTNYADSVKGRFTISRDNAKNTVYLQMNSLKPEDTAVYYCNAVYYARYRKYTYYYWGQGTQVTVSS	high polyreactivity
QVQLVESGGGLVQAGGSLRLSCAASGNTFRDYAMGWYRQAPGKERELVAAITSAGARTYYADSVKGRFTISRDNAKNTVYLQMNSLKPEDTAVYYCAADWSGYYTYDYWGQGTQVTVSS	low polyreactivity
QVQLVESGGGLVQAGGSLRLSCAASGSIFYKYAMGWYRQAPGKERELVATIRASGGRTYYADSVKGRFTISRDNAKNTVYLQMNSLKPEDTAVYYCAKYTTRGVYRSWPKDMDYWGQGTQVTVSS	low polyreactivity
QVQLVESGGGLVQAGGSLRLSCAASGSIFRGYDMGWYRQAPGKERELVARISRGTGTHYADSVKGRFTISRDNAKNTVYLQMNSLKPEDTAVYYCAARYRYYPVTTRGYYWGQGTQVTVSS	high polyreactivity
QVQLVESGGGLVQAGGSLRLISAASGSIFYRNAMGWYRQAPGKERDLVAAISSDGSTNYADSVKGRFTISRDNAKNTVYLQMNSLKPEDTAVYYCAAPWTQILDFWGQGTQVTVSS	low polyreactivity
QVQLVESGGGLVQAGGSDRLSCAASGRTFDRYAMGWYRQAPGKERELVAAISRGGSTNYADSVKGRFTISRDNAKNTVYLQMNSLKPEDTAVYYCAARVSFLHLRRAYDYWGQGSQVTVSS	high polyreactivity
QVQLVESGGGLVQAGGSLRLSCAASGYTFRLYAMGWYRQAPVKERELVAAINTSGGRTYYADSVKGRFTISRDNAKNTVYLQMNSLKPEDTAVYYCATDWYWKRADIRPGDYWGQGTQVTVSS	low polyreactivity
QVQLVESGGGLVQAGGSLRLRCAASGFTFRYYAMGWYRQAPGKERELVASTYYADSVKGRFTISRDNAKNTVYLQMNSLKPEDTAVYYCNVDGTSSSPFVQKHKEMDYWGQGTQVTVSS	low polyreactivity
QVQLVESGGGLVQAGGSLRLSCASSGSTLRWYAMGWYRQAPGKERELVARISWTTGSTYYADSVKGRFTISRDNAKNTVYLQMNSLKPEDTAVYYCAKGKKSSRSGIYNYWGQGTQVTVSS	high polyreactivity
QVQHVESGGGLVQAGGSLRLSCAASGYTFTINTMGWYRQAPGKERELVAAITWRGGSTYYADSVKGRFTISRDNAKNTVYLQMNSLKPEDSAVYYCNKDYYITTTTFDYWGQGTQVTVSS	low polyreactivity

Sequence	polyreactivity (PSR sort gate)
QVQLVESGGGLVQAGGSLRLSCAASGSTRIYDMGCYRQAPAKERELVAAISSTGSTYYADSVKGRFTISRDNAKNTVYLQMNSLKPEDTAVYYCAAARYYRYDRYYSWGQGTQVTVTS	high polyreactivity
QVQLVESGGGLVQAGGSLRLSCAASGSTLNRYAMGWYRQAPGKERELVAAINGSGGSTYYADSVKGRFTISRENAKNTVYLLINSLKQEDSAVYYCAAYGYSFAYGAYGYWGQGTQVTVSS	high polyreactivity
QVQLVDSGGGLVQAGGRLRLSCAASGRTFVRYAMGWYRQAPGKERELVATIRWRGGSTYYADSVKGRFTISRDNAKNTVYLQMNSLKPDDTAVYYCAARRYSSGLTDDYWGQGTQVTVSS	high polyreactivity
QVQLVESGGGLVQAGGSLRLSCSASGSIFLIYAMGWYRQAPGKERELVATINRGDNTYYADSVKGRFTISRDNAKNSVYLQMNSLKPEDTAVYYCAARAYDLGYAGYDYWGQGTQVTVSS	low polyreactivity
HVQLVESGGGLVQAGGSLRLSCAASGSSSAKYAMGWYRQAPGKERELVAAITSRADSTYYADSVKGRFTISRDNAKNTVYLQMNSLKPEDTAVYYCNVRITVYRSDVWYFIYDYWGQGTQVTVSS	low polyreactivity
QVQLVESGGGLVQAGGSLRLSCAATGGTFEFYTMGWYRQAPGKERELVAVINASGDSTYYADSVKGRFTISRDNAKNTVYLQMNSLKPEDTAVYYCAADNQGYTTKWRREYYYWGQGTQVTVSS	low polyreactivity
QVQLVESGGGLVQAGGSLRLSCAASGSTFTAYAMGWYRHAPGKERELVAGITGNGGSTRYADSVKGRFTISRDNAKNTVYVQMNSLKPEDTAFYYCAARWTRQRYRTSYYSWGQGTQVTVSS	high polyreactivity
QVQLVESGGCLVQAGGSLRLSCAASGNTFVDYAMGWYRQAPGKERELGAAIDQTGGSTYYADSVKGRFTISRDNAKNTVYLQMNSLKPVDTAVYYCASDLSDRKDLYPRWYDYWGQGSQVTVSS	low polyreactivity
QVQLVESGGDLVQAGGSLRLSCAATGFTFDYYAMGWYRQAPGKEREFVAAISRSGGRTYYADSVKGRFTISRDNAKNTVYLQMNSLKQEDTAVYYCAAGFVGERFDYWGQGTQVTVSS	high polyreactivity
QVQLVESGGGLVQAGGSLRLSCAASGSIYLNYAMGWYRQAPGKERELVAGISNGGSTNYADSVKGRFTISRDNAKNTVYLQMKSLIPEDTAVYYCARPAYKSRGKRFDYWGQGTQVTVSS	low polyreactivity
QVQLVESGGGLVQAGGSLLLSCAASGSIFITYAMGWYRLAPGKERELVAAIRDSGDRTYYADSVKGRFTISRDNAKNTVYLQMNSLKPEDTAVYDCNARWQEPLKYDYWGQGTQVTVSS	low polyreactivity
QVQLVESGGGLVQAGGSLRLSCAASGSTLFYNDMGWYRQAPGKEREFVAAIRSNDGSTYYADSVKGRFTISRDNAKNTVYLQMKSLKPEDTAVYYCNKDVWDGYDWPEFDYWGQGTQVTVSS	low polyreactivity
QVQLVESGGGLVKAGGSLRLSCAASGRTFVYYAMGWYRQAPGKERELVAAISGSGGSTYYADSVKGRFTISRDNAKNTVYLQMNSLKPEDTAVYYCAAGPRGRYRYGYWGQGTQVTVSS	high polyreactivity
QVQLVESGGGLVQAGGSLRLSCAASGRTFLRYARGWYRQAPGKERELVAAISWSGGRTYYADSVKGRFTISRDNAKNTVYLQMNSLKPEDTAVYYCNKVVLYGAHYYYWGQGTQVTVSS	high polyreactivity
QVQLVESGGGLVQAGGSLRLSCAASGSIFDVYAMGWYRPAPGKERELVATISYGDSSTYYADSVKGRFTISRDNAKNTVYFQMNSLKPEDTAVYYCAADYLTAPRWRLLGEMEYWGQGTQVTVSS	low polyreactivity
QVQLVESGGGLVQAGGSLRLSCAAYGRTFPLYAMGWYRQAPGKEREFVAAISSRGGRTYYADSVKGRFTISRDNEKNTVYLQMNSLKPEDTAVYYCNARYVHDGFDYWGQGTQVTVSS	high polyreactivity
